Source: article PMC5854669, “Zinc knuckle of TAF1 is a DNA binding module critical for TFIID promoter occupancy”
Where a chain is given by its changes, count along the chain named.

T1: TAF1 ZnD charge mutant (Homo sapiens, UniProt P21675 1256-1303, R1295A;K1298A)
T1 chain: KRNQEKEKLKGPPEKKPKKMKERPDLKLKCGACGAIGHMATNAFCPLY

T2: TAF1 ZnD cysteine mutant (Homo sapiens, UniProt P21675 1256-1303, C1285A;C1288A)
T2 chain: T1 chain with C30A, C33A, A40R, A43K

T3: TAF1 ZnC cysteine mutant (Homo sapiens, UniProt P21675 1234-1303, C1285A;C1288A)
T3 sequence: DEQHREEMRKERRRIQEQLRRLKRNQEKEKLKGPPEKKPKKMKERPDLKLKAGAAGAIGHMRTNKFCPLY

T4: TAF1 ZnA (Homo sapiens, UniProt P21675 1234-1371)
T4 sequence: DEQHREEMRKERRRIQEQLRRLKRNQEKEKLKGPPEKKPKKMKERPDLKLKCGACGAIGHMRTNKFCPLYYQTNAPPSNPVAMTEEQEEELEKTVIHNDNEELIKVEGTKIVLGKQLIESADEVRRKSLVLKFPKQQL

T5: TAF1 ZnD (Homo sapiens, UniProt P21675 1256-1303)
T5 chain: T1 chain with A40R, A43K

T6: TAF1 ZnC (Homo sapiens, UniProt P21675 1234-1303)
T6 sequence: T3 sequence with A52C, A55C

B1: IMD (Inr, MTE, DPE of super core promoter) (dsDNA)
DNA 1: GTCCTCAGTCGCGATCGAACACTCGAGCCGAGCAGACGTGCCTA
DNA 2: TAGGCACGTCTGCTCGGCTCGAGTGTTCGATCGCGACTGAGGAC
B2: CD1P (cyclin D1 core promoter) (dsDNA)
DNA 1: AGGGGAGTTTTGTTGAAGTTGCAAAGTCCTGGAGCCTCCAGAGGGCTGTCG
DNA 2: CGACAGCCCTCTGGAGGCTCCAGGACTTTGCAACTTCAACAAAACTCCCCT
B3: Random DNA (dsDNA)
DNA 1: GAATGTCGCGAAGGCAGCGTTCGCGAAGACAGCAAAGAAG
DNA 2: CTTCTTTGCTGTCTTCGCGAACGCTGCCTTCGCGACATTC

Key:
TAF1 ZnD charge mutant = target: T1, TAF1 ZnD charge mutant; assay: BLI; BLI: 10 mM HEPES pH 7.9, 5 mM MgCl2, 100 mM NaCl, 10% glycerol, 0.1% ovalbumin, 0.2 mM dI:dC, 30 °C; EMSA: 10 mM HEPES pH 7.9, 5 mM MgCl2, 100 mM NaCl, 10% glycerol, 20 mM tetrasodium pyrophosphate (so in the source), 0.2 mM dI:dC, 25 °C; settings: protein: recombinant; tags: His-GB1; label: 5'-biotin (BLI); 5'-32P (EMSA); blunt
TAF1 ZnD cysteine mutant = target: T2, TAF1 ZnD cysteine mutant; assay: as above; settings: protein: recombinant; tags: His-GB1; label: 5'-biotin (BLI); 5'-32P (EMSA); blunt
TAF1 ZnC cysteine mutant = target: T3, TAF1 ZnC cysteine mutant; assay: as above; settings: protein: recombinant; tags: His-GB1; label: 5'-biotin (BLI); 5'-32P (EMSA); blunt
TAF1 ZnA = target: T4, TAF1 ZnA; assay: BLI; 0.2 mM dI:dC, 5 mM Mg2+; BLI: 10 mM HEPES pH 7.9, 5 mM MgCl2, 100 mM NaCl, 10% glycerol, 0.1% ovalbumin, 0.2 mM dI:dC, 30 °C; EMSA: 10 mM HEPES pH 7.9, 5 mM MgCl2, 100 mM NaCl, 10% glycerol, 20 mM tetrasodium pyrophosphate (so in the source), 0.2 mM dI:dC, 25 °C; settings: protein: recombinant; EMSA/proteolysis: tag removed by TEV; label: 5'-biotin (BLI); 5'-32P (EMSA); blunt
TAF1 ZnD = target: T5, TAF1 ZnD; assay: as above; settings: protein: recombinant; tags: His-GB1; label: 5'-biotin (BLI); 5'-32P (EMSA); blunt
TAF1 ZnC = target: T6, TAF1 ZnC; assay: as above; settings: protein: recombinant; tags: His-GB1; label: 5'-biotin (BLI); 5'-32P (EMSA); blunt

Binder	binding result (TAF1 ZnD charge mutant)	binding result (TAF1 ZnD cysteine mutant)	binding result (TAF1 ZnC cysteine mutant)	Kd (TAF1 ZnA) [nM]	Kd (TAF1 ZnD) [nM]	Kd (TAF1 ZnC) [nM]
B1	no binding	no binding	no binding	288 ± 46	503 ± 67	343 ± 42
B2				411 ± 101		
B3				1010 ± 228		
